Experiments:
[1] = molecular target: T1, Arabidopsis UGPase1 (Arabidopsis thaliana, UniProt Q9M9P3); assay: Pi release from PPi, phosphomolybdate colorimetry; type: biochemical; settings: forward reaction; 5 mM MgCl2; pH 7.5; room temperature; estimate, clouding at and above 3 mM
T1 construct: gene UGP2; recombinant, expressed in E. coli, purified to homogeneity as earlier reported

[2] = molecular target: T2, barley UGPase (Hordeum vulgare, UniProt Q43772); assay: Pi release from PPi, phosphomolybdate colorimetry; type: biochemical; settings: forward reaction, 5 mM MgCl2, pH 7.5, room temperature
T2 construct: recombinant, expressed in E. coli, purified to homogeneity as earlier reported
T2 sequence (Q43772 whole entry): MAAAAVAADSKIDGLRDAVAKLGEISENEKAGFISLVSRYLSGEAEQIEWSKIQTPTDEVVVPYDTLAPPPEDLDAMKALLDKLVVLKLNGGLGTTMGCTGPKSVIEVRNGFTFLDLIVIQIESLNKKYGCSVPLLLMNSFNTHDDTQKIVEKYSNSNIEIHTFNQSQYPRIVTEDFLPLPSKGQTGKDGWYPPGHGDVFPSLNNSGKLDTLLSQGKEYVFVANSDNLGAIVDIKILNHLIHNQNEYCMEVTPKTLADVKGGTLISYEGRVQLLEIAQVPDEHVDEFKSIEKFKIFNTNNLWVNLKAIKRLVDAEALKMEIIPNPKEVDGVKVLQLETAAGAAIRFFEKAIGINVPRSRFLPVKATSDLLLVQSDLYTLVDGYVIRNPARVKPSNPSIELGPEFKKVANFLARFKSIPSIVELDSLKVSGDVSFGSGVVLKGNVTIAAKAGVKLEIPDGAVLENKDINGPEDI

[3] = molecular target: T3, Arabidopsis UGPase2 (Arabidopsis thaliana, UniProt P57751); assay: Pi release from PPi, phosphomolybdate colorimetry; type: biochemical; settings: 1 mM Glc-1-P; 1 mM UTP; 5 mM MgCl2; pH 7.5; room temperature
T3 construct: gene UGP1; recombinant, expressed in E. coli, purified to homogeneity as earlier reported
T3 sequence (P57751 2-470): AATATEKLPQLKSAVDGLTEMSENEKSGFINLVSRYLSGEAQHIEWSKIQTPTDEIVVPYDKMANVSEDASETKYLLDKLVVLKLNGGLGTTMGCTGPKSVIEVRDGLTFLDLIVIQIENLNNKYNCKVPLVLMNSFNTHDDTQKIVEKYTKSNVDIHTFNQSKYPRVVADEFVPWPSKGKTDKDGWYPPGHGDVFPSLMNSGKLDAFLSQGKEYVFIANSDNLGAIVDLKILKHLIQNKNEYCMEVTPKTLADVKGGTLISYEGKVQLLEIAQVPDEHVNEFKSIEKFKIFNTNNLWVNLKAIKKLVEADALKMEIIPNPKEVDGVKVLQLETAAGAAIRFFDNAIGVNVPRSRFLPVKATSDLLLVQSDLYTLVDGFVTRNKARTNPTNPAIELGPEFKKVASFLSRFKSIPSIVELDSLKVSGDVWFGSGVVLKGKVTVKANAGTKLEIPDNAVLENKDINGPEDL

[4] = tested on: O=P(O)(O)OP(=O)(O)O; assay: purified protein; type: biochemical, Arabidopsis thaliana; settings: reverse reaction, co-substrate UDP-Glc, 5 mM MgCl2, pH 7.5
[5] = tested on: O=c1ccn([C@@H]2O[C@H](CO[P@@](=O)(O)O[P@@](=O)(O)O[C@H]3O[C@H](CO)[C@@H](O)[C@H](O)[C@H]3O)[C@@H](O)[C@H]2O)c(=O)[nH]1; assay: purified protein; type: biochemical, Arabidopsis thaliana; settings: reverse reaction, co-substrate PPi, 5 mM MgCl2, pH 7.5
[6] = tested on: CC(=O)N[C@H]1[C@@H](OP(=O)(O)O)O[C@H](CO)[C@H](O)[C@@H]1O; assay: Pi release from PPi, phosphomolybdate colorimetry; type: biochemical, Arabidopsis thaliana; settings: forward reaction, co-substrate UTP, 5 mM MgCl2, pH 7.5, room temperature
[7] = tested on: O=P(O)(O)O[C@H]1O[C@H](CO)[C@@H](O)[C@H](O)[C@H]1O; assay: Pi release from PPi, phosphomolybdate colorimetry; type: biochemical, Arabidopsis thaliana; settings: forward reaction, co-substrate UTP, 5 mM MgCl2, pH 7.5, room temperature
[8] = tested on: O=c1ccn([C@@H]2O[C@H](COP(=O)(O)OP(=O)(O)OP(=O)(O)O)[C@@H](O)[C@H]2O)c(=O)[nH]1; assay: Pi release from PPi, phosphomolybdate colorimetry; type: biochemical, Arabidopsis thaliana; settings: forward reaction, co-substrate GalNAc-1-P, 5 mM MgCl2, pH 7.5, room temperature
[9] = tested on: C[C@H]1O[C@H](OP(=O)(O)O)[C@H](O)[C@@H](O)[C@H]1O; assay: Pi release from PPi, phosphomolybdate colorimetry; type: biochemical, Arabidopsis thaliana; settings: forward reaction, co-substrate UTP, 5 mM MgCl2, pH 7.5, room temperature
[10] = tested on: O=C(O)[C@H]1O[C@H](OP(=O)(O)O)[C@H](O)[C@@H](O)[C@H]1O; assay: Pi release from PPi, phosphomolybdate colorimetry; type: biochemical, Arabidopsis thaliana; settings: forward reaction, co-substrate UTP, 5 mM MgCl2, pH 7.5, room temperature
[11] = tested on: O=P(O)(O)O[C@H]1O[C@H](CO)[C@@H](O)[C@H](O)[C@H]1O; assay: Pi release from PPi, phosphomolybdate colorimetry; type: biochemical, Hordeum vulgare; settings: forward reaction, co-substrate UTP, 5 mM MgCl2, pH 7.5, room temperature

T1 sequence (Q9M9P3 2-469): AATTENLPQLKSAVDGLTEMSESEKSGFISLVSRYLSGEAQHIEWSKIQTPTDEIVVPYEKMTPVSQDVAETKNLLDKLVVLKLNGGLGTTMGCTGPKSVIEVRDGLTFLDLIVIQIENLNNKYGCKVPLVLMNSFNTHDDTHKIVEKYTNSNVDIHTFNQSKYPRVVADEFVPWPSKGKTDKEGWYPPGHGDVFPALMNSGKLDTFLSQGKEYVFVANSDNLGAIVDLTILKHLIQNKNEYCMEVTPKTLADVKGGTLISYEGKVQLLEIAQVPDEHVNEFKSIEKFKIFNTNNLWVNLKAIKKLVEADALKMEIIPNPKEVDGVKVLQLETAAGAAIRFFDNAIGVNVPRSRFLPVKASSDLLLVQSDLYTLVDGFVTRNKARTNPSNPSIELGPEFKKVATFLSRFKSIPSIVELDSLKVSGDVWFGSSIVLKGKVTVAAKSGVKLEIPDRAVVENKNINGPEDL

## O=P(O)(O)OCC1(O)O[C@H](CO)[C@@H](O)[C@@H]1O (some centres unmarked) [Fru-1-P]
[1]
  Km: > 10 mM
[2]; estimate, clouding at and above 3 mM
  Km: > 10 mM

## O=P(O)(O)O[C@]1(CO)O[C@H](CO)[C@@H](O)[C@@H]1O [Fru-2-P]
[2]
  Km: > 10 mM

## O=P(O)(O)O[C@H]1O[C@H](CO)[C@H](O)[C@H](O)[C@H]1O [Gal-1-P]
[2]; estimate from near-linear rate up to 10 mM
  Km: > 10 mM

## O=P(O)(O)O[C@H]1O[C@H](CO)[C@@H](O)[C@H](O)[C@H]1O [Glc-1-P]
[3]
  Pi release from PPi, phosphomolybdate colorimetry: plant UGPases are highly specific for Glc-1-P and UTP as substrates

## O=c1ccn([C@@H]2O[C@H](COP(=O)(O)OP(=O)(O)OP(=O)(O)O)[C@@H](O)[C@H]2O)c(=O)[nH]1 [UTP]
[3]
  Pi release from PPi, phosphomolybdate colorimetry: plant UGPases are highly specific for Glc-1-P and UTP as substrates

## Arabidopsis UAGPase2 (Arabidopsis thaliana)
[4]
  Km: 0.32 mM
[5]
  Km: 0.21 mM
[6]
  Km: 1.0 mM
[7]
  Km: 3.2 mM
[8]
  Km: 3 mM

## Arabidopsis USPase (Arabidopsis thaliana)
[9]
  Km: 3.4 mM
[10]
  Km: 1.3 mM

## barley UGPase (Hordeum vulgare)
[11]
  Km: 0.45 mM
